Experimental data from patent US20260201008A1, “SECRETIN-DERIVED GLP1R SELECTIVE AGONISTS” (GUBRA A/S, priority 2023, published 2026).
Numbered stars: 1 amine (or outer) side, 2 acyl side, 3 side chain; on linkers, the order of the positions; unused ones are H or OH. Square brackets hold non-standard residues; d marks the D form. Side chains are listed from the residue outwards. Ends that are not written are not given here. * marks the point of attachment. C20 diacid = O=C(O)CCCCCCCCCCCCCCCCCCC(=O)*; γGlu = O=C(O)[C@H](CCC(=O)[*:2])N[*:1]; AEEA = NCCOCCOCC(=O)O; Aib = CC(C)(N)C(=O)O

B1: SEQ ID NO: 144 (peptide)
peptide: H[Aib]EGTFTSDVSYLKEEA[Aib]LQRFLEYLV-NH2
modifications: not fully specified (residue 14); also: K14 lipidated with C20DA[γE][OEG][OEG]- or C18DA[γE][OEG][OEG]-
B2: SEQ ID NO: 145 (peptide)
peptide: H[Aib]EGTFTSDVSHLKEEA[Aib]LQRFLEHLV-NH2
modifications: not fully specified (residue 14); also: K14 lipidated with C20DA[γE][OEG][OEG]- or C18DA[γE][OEG][OEG]-
B3: SEQ ID NO: 142 (peptide)
peptide: HGEGTFTSDVSYLKEEA[Aib]LQRFLEHLV-NH2
modifications: not fully specified (residue 14); also: K14 lipidated with C20DA[γE][OEG][OEG]- or C18DA[γE][OEG][OEG]-

Biological target: human GLP-1 receptor (hGLP1R) (human, UniProt P43220 24-463)
Test: cell-based or functional assay

Row | Binder | pEC50 hGLPR1
1 | H[Aib]EGTFTSDVSYLKEEA[Aib]QQRFLEHLV-NH2 (not fully specified (residue 14)) [SEQ ID NO: 157] | 11.6 -log M
2 | H[Aib]QGTFTSDVSYLKEEA[Aib]LQRFLEHLV-NH2 (not fully specified (residue 14)) [SEQ ID NO: 156] | 10.8 -log M
3 | H[Aib]YGTFTSDVSYLKEEA[Aib]LQRFLEHLV-NH2 (not fully specified (residue 14)) [SEQ ID NO: 159] | 9.1 -log M
4 | H[Aib]EGTFTSDVSYLKEEA[Aib]LQRFLEELV-NH2 (not fully specified (residue 14)) [SEQ ID NO: 151] | 10.6 -log M
5 | B1 | 10.8 -log M
6 | H[Aib]EGTFTSDVSYLKEEA[Aib][Aib]QRFLEHLV-NH2 (not fully specified (residue 14)) [SEQ ID NO: 152] | 10.9 -log M
7 | H[Aib]EGTFTSDVSYLKEEA[Aib]TQRFLEHLV-NH2 (not fully specified (residue 14)) [SEQ ID NO: 162] | 12.2 -log M
8 | H[Aib]EGTFTSDVSTLK([AEEA-AEEA-γGlu-C20 diacid])EEA[Aib]LQRFLEHLV-NH2 [SEQ ID NO: 165] | 11.2 -log M
9 | H[Aib]EGTFTSDVSTLKE[Aib]AAEQRFLEHLV-NH2 (not fully specified (residue 14)) [SEQ ID NO: 16] | 10.4 -log M
10 | B2 | 11.1 -log M
11 | H[Aib]EGTFTSDVSRLK([AEEA-AEEA-γGlu-C20 diacid])EFAAAQRFLEHLV-NH2 [SEQ ID NO: 2] | 10.1 -log M
12 | H[Aib]EGTFTSDVSDLKEEA[Aib]LQRFLEHLV-NH2 (not fully specified (residue 14)) [SEQ ID NO: 153] | 10.7 -log M
13 | H[Aib]EGTFTSDVSYLKEEA[Aib]GQRFLEHLV-NH2 (not fully specified (residue 14)) [SEQ ID NO: 154] | 10.8 -log M
14 | H[Aib]EGTFTSDVSYLKEEA[Aib]VQRFLEHLV-NH2 (not fully specified (residue 14)) [SEQ ID NO: 161] | 11.4 -log M
15 | H[Aib]EGTFTSDVSYLHEEA[Aib]LQRFLEKLV-NH2 (not fully specified (residue 25)) [SEQ ID NO: 164] | 10.7 -log M
16 | H[Aib]EGTFTSDVS[Aib]LKEEA[Aib]LQRFLEHLV-NH2 (not fully specified (residue 14)) [SEQ ID NO: 163] | 10.9 -log M
17 | H[Aib]EGTFTSDVSYLKEEA[Aib]LQRFLEKLV-NH2 (not fully specified (residue 14)) [SEQ ID NO: 147] | 11.3 -log M
18 | H[Aib]EGTFTSDVSVLKE[Aib]AAAQRFLEHLV-NH2 (not fully specified (residue 14)) [SEQ ID NO: 15] | 10.1 -log M
19 | H[Aib]EGTFTSDVSLLKEEA[Aib]LQRFLEHLV-NH2 (not fully specified (residue 14)) [SEQ ID NO: 149] | 10.9 -log M
20 | H[Aib]VGTFTSDVSYLKEEA[Aib]LQRFLEHLV-NH2 (not fully specified (residue 14)) [SEQ ID NO: 155] | 10.9 -log M
21 | H[Aib]EGTFTSDVSALKEEA[Aib]LQRFLEHLV-NH2 (not fully specified (residue 14)) [SEQ ID NO: 148] | 10.8 -log M
22 | H[Aib]EGTFTSDVSYLKEEA[Aib]AQRFLEHLV-NH2 (not fully specified (residue 14)) [SEQ ID NO: 146] | 11.6 -log M
23 | H[Aib]EGTFTSDVSYL[Aib]EEA[Aib]LQRFLEKLV-NH2 (not fully specified (residue 25)) [SEQ ID NO: 158] | 10.4 -log M
24 | H[Aib]WGTFTSDVSYLKEEA[Aib]LQRFLEHLV-NH2 (not fully specified (residue 14)) [SEQ ID NO: 160] | 9.1 -log M
25 | H[Aib]EGTFTSDVSYLKEEA[Aib]EQRFLEHLV-NH2 (not fully specified (residue 14)) [SEQ ID NO: 150] | 11.3 -log M
26 | H[Aib]EGTFTSDVSRLK([AEEA-AEEA-γGlu-C20 diacid])EEAASQRFLEHLV-NH2 [SEQ ID NO: 17] | 10.6 -log M
27 | H[Aib]EGTFTSDVSYLYEEA[Aib]LQRFLEKLV-NH2 (not fully specified (residue 25)) [SEQ ID NO: 143] | 11 -log M
28 | B3 | 10.9 -log M

Biological target: human secretin receptor (hSCTR) (human, UniProt P47872 23-440)
Test: cell-based or functional assay

human secretin receptor (hSCTR), sequence (P47872 23-440): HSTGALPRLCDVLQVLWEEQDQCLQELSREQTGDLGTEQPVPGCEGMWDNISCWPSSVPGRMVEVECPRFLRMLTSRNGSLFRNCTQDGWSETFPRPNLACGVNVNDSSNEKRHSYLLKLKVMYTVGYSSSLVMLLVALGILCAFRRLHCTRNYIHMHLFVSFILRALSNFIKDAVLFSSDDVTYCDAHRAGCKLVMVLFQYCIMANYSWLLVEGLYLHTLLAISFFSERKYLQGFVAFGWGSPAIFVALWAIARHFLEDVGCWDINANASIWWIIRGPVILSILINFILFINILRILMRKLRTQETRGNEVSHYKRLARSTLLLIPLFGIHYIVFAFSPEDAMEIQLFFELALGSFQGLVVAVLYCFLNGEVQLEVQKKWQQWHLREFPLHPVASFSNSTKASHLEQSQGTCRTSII

Row | Binder | pEC50 hSCTR
29 | H[Aib]EGTFTSDVSYLKEEA[Aib]QQRFLEHLV-NH2 (not fully specified (residue 14)) [SEQ ID NO: 157] | 6.5 -log M
30 | H[Aib]QGTFTSDVSYLKEEA[Aib]LQRFLEHLV-NH2 (not fully specified (residue 14)) [SEQ ID NO: 156] | 4.4 -log M
31 | H[Aib]YGTFTSDVSYLKEEA[Aib]LQRFLEHLV-NH2 (not fully specified (residue 14)) [SEQ ID NO: 159] | 4.6 -log M
32 | H[Aib]EGTFTSDVSYLKEEA[Aib]LQRFLEELV-NH2 (not fully specified (residue 14)) [SEQ ID NO: 151] | 6.9 -log M
33 | B1 | 6.6 -log M
34 | H[Aib]EGTFTSDVSYLKEEA[Aib][Aib]QRFLEHLV-NH2 (not fully specified (residue 14)) [SEQ ID NO: 152] | 5.4 -log M
35 | H[Aib]EGTFTSDVSYLKEEA[Aib]TQRFLEHLV-NH2 (not fully specified (residue 14)) [SEQ ID NO: 162] | 6.9 -log M
36 | H[Aib]EGTFTSDVSTLK([AEEA-AEEA-γGlu-C20 diacid])EEA[Aib]LQRFLEHLV-NH2 [SEQ ID NO: 165] | 8 -log M
37 | H[Aib]EGTFTSDVSTLKE[Aib]AAEQRFLEHLV-NH2 (not fully specified (residue 14)) [SEQ ID NO: 16] | 6.9 -log M
38 | B2 | 7.2 -log M
39 | H[Aib]EGTFTSDVSRLK([AEEA-AEEA-γGlu-C20 diacid])EFAAAQRFLEHLV-NH2 [SEQ ID NO: 2] | 6.3 -log M
40 | H[Aib]EGTFTSDVSDLKEEA[Aib]LQRFLEHLV-NH2 (not fully specified (residue 14)) [SEQ ID NO: 153] | 6.5 -log M
41 | H[Aib]EGTFTSDVSYLKEEA[Aib]GQRFLEHLV-NH2 (not fully specified (residue 14)) [SEQ ID NO: 154] | 5.4 -log M
42 | H[Aib]EGTFTSDVSYLKEEA[Aib]VQRFLEHLV-NH2 (not fully specified (residue 14)) [SEQ ID NO: 161] | 6.8 -log M
43 | H[Aib]EGTFTSDVSYLHEEA[Aib]LQRFLEKLV-NH2 (not fully specified (residue 25)) [SEQ ID NO: 164] | 6.6 -log M
44 | H[Aib]EGTFTSDVS[Aib]LKEEA[Aib]LQRFLEHLV-NH2 (not fully specified (residue 14)) [SEQ ID NO: 163] | 7.4 -log M
45 | H[Aib]EGTFTSDVSYLKEEA[Aib]LQRFLEKLV-NH2 (not fully specified (residue 14)) [SEQ ID NO: 147] | 7.2 -log M
46 | H[Aib]EGTFTSDVSVLKE[Aib]AAAQRFLEHLV-NH2 (not fully specified (residue 14)) [SEQ ID NO: 15] | 6.5 -log M
47 | H[Aib]EGTFTSDVSLLKEEA[Aib]LQRFLEHLV-NH2 (not fully specified (residue 14)) [SEQ ID NO: 149] | 7.5 -log M
48 | H[Aib]VGTFTSDVSYLKEEA[Aib]LQRFLEHLV-NH2 (not fully specified (residue 14)) [SEQ ID NO: 155] | 4.6 -log M
49 | H[Aib]EGTFTSDVSALKEEA[Aib]LQRFLEHLV-NH2 (not fully specified (residue 14)) [SEQ ID NO: 148] | 7.2 -log M
50 | H[Aib]EGTFTSDVSYLKEEA[Aib]AQRFLEHLV-NH2 (not fully specified (residue 14)) [SEQ ID NO: 146] | 5.7 -log M
51 | H[Aib]EGTFTSDVSYL[Aib]EEA[Aib]LQRFLEKLV-NH2 (not fully specified (residue 25)) [SEQ ID NO: 158] | 5.8 -log M
52 | H[Aib]WGTFTSDVSYLKEEA[Aib]LQRFLEHLV-NH2 (not fully specified (residue 14)) [SEQ ID NO: 160] | 4.6 -log M
53 | H[Aib]EGTFTSDVSYLKEEA[Aib]EQRFLEHLV-NH2 (not fully specified (residue 14)) [SEQ ID NO: 150] | 5.5 -log M
54 | H[Aib]EGTFTSDVSRLK([AEEA-AEEA-γGlu-C20 diacid])EEAASQRFLEHLV-NH2 [SEQ ID NO: 17] | 6.6 -log M
55 | H[Aib]EGTFTSDVSYLYEEA[Aib]LQRFLEKLV-NH2 (not fully specified (residue 25)) [SEQ ID NO: 143] | 6.1 -log M
56 | B3 | 4.7 -log M
